{
  "source": "patent US6699481B2",
  "about": "“Peptides for inhibition of herpes simplex virus entry” (priority 1998, dated 2004)",
  "molecules": {"B1": {"name": "gD-1 (306t): soluble wild type HSV glycoprotein D, from recombinant baculovirus-infected cells (protein)", "chain": "KYALVDASLKMADPNRFRGKDLPVLDQLTDPPGVRRVYHIQAGLPDPFQPPSLPITVYYAVLERACRSVLLNAPSEAPQIVRGASEDVRKQPYNLTIAWFRMGGNCAIPITVMEYTECSYNKSLGACPIRTQPRWNYYDSFSAVSEDNLGFLMHAPAFETAGTYLRLVKINDWTEITQFILEHRAKGSCKYALPLRIPPSACLSPQAYQQGVTVDSIGMLPRFIPENQRTVAVYSLKIAGWHGPKAPYTSTLLPPELSETPNATQPELAPEDPEDSALLEDPVGTVAPQIPPNWHIPSIQDAATPY", "modifications": "left off: small tags and cut ends", "notes": "soluble wild type HSV glycoprotein D, from recombinant baculovirus-infected cells"}},
  "key": {"[1]": {"target": "T1, HveA (200t) (Homo sapiens, UniProt Q92956)", "T1 sequence (Q92956 39-202 limits assumed)": "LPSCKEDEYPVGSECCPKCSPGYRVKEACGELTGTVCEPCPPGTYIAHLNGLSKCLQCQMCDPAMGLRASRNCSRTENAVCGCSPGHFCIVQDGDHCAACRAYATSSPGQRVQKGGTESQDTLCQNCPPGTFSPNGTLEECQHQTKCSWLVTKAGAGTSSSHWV", "assay": "competition ELISA, gD-1(306t) binding with immobilized HveA (200t)", "settings": "for inhibitory effect upon binding of gD-1 with HveA: FIG. 4C; for inhibition of binding of soluble wild type gD-1(306t) with immobilized HveA (200t): peptide at 0.5 millimolar, FIG. 4A", "procedure": "(§1) Several ELISAs were performed to analyze interaction among HveA, the isolated phage peptides, gD, and LT-α. In these assays, microtiter wells were coated for 2 hours at 22° C. with 40 nanograms of HveA(200t), human factor H, trout complement C3, BSA, milk, or ovalbumin. Nonspecific binding in the wells was blocked using PBS containing 1% (w/v) BSA for 1 hour at 22° C. For competition assays, serial dilutions of gD-1 (306t), gD-1 (Δ290-299t), BSA, peptide BP-1, BP-2, or an unrelated cyclic peptide having the amino acid sequence ICVVQDWGHHRCT (SEQ ID NO:3) was added to each well. After 30 minutes of incubation at 22° C., recombinant protein (i.e., gD-1 (306t) at 0.4 microgram per milliliter, gD-1 (Δ290-299t) at 0.1 microgram per milliliter, or LT-α at 20 nanomolar), or phage supernatant was added to the well, and the samples were incubated for 1 hour. The wells were washed twice with PBS containing 0.05% (v/v) Tween-20 and incubated for one hour at 22° C. with at least one of the following: (i) a 1:1000 dilution of a peroxidase-labeled anti-M13 antibody, (ii) a 1:400 dilution of an anti-gD polyclonal antibody (R7), or (iii) an anti-LT-α monoclonal antibody (AG9).\n(§2) Following incubation with the antibody, the wells were washed twice with PBS containing 0.05% (v/v) Tween-20 and incubated for 30 minutes at 22° C. with a 1:1000 dilution of a peroxidase-conjugated goat anti-rabbit immunoglobulin G (for polyclonal antibody detection) or with goat anti-mouse immunoglobulin G (for monoclonal antibody detection; Bio-Rad Laboratories, Richmond, Calif.). Color was developed by adding 2,2′-azino-di-(3-ethylbenzthiazolinesulfonate) (ABTS, Boehringer-Mannheim, Indianapolis, Ind.) and 0.5% (v/v) hydrogen peroxide. Absorbance was assessed at 405 nanometers. Net gD-1 or LT-α binding was calculated by subtracting the amount of secondary antibody bound with HveA from the amount of ligand bound with HveA."}, "[2]": {"system": "HSV entry into CHO-HveC cells", "assay": "HSV entry assay, CHO-HveC cells", "assay_type": "cell-based, HSV-1", "settings": "KOS-hrR3 virus", "procedure": "(§3) CHO-HveA, CHO-HveC, and Vero cells were plated on 96-well dishes and incubated overnight. The cells were chilled at 4° C. for 10, minutes and then the medium was replaced with Ham's F-12 (CHO-HveA and CHO-HveC cells) or with Dulbecco's modified Eagle medium (DMEM) (Vero cells). These media were supplemented with 10% (v/v) bovine fetal serum and 10 millimolar HEPES, containing various concentrations of peptide, which had been previously filtered through a 0.2 micrometer pore size filter (Corning Glass Works, Corning, N.Y.). The plates were rocked at 4° C. for 90 minutes, at which time KOS-hrR3 virus (5×10^5 PFU/well) was added. The plates were rocked at 4° C. for 90 additional minutes and then incubated at 37° C. for 5 hours. Cells were lysed using 20% (v/v) Nonidet P-40 and β-galactosidase substrate (o-nitrophenyl-β-D-glucopyranoside) was added to each well. β-galactosidase activity was measured at selected time points using a Specromax 250 enzyme-linked immunosorbent assay (ELISA) reader.\n(§4) Inhibition of gD-1 binding with HveA mediated by BP-2, as indicated in FIGS. 4A-4C, raised the question of whether this peptide has a blocking effect on viral entry into mammalian cells. […]"}, "[3]": {"target": "T1, HveA (200t)", "assay": "competition ELISA, binding of phage displaying BP-1 or BP-2 with HveA", "procedure": "as §1, §2\nThe results of these experiments are depicted in FIG. 1A."}, "[4]": {"system": "HSV-1 entry into CHO-HveA cells", "assay": "HSV entry assay, CHO-HveA cells (β-galactosidase reporter virus KOS-hrR3)", "assay_type": "cell-based", "settings": "FIG. 7A", "procedure": "as §3\nInhibition of gD-1 binding with HveA mediated by BP-2, as indicated in FIGS. 4A-4C, raised the question of whether this peptide has a blocking effect on viral entry into mammalian cells. To test this possibility, the effect of BP-2 and related peptides (i.e., BP-1, BP-2 (3, 9 Ala), scrambled BP-2, control peptide, and gD-1(Δ290-299t)) on HSV-1 entry into CHO cells expressing either HveA (CHO-HveA cells), or HveC (CHO-HveC cells), and into Vero cells was examined. Cell monolayers were incubated with increasing concentrations of peptide at 4° C. for 90 minutes. Following incubation, the cells were infected with the β-galactosidase reporter virus, KOS-hrR3. The results of these experiments are depicted in FIGS. 7A and 7B."}, "[5]": {"system": "HSV entry into Vero cells", "assay": "HSV entry assay, Vero cells", "assay_type": "cell-based, HSV-1", "settings": "KOS-hrR3 virus; FIG. 7B", "procedure": "as §3, §4"}, "[6]": {"target": "T2, HveA (200t) (Homo sapiens, UniProt Q92956)", "T2 sequence (Q92956 39-200)": "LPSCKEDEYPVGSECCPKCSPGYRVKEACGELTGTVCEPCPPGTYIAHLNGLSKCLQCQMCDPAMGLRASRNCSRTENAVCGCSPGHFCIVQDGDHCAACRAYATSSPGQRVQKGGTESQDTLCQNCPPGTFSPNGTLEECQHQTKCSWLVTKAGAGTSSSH", "assay": "competition ELISA, gD-1 (Δ290-299t) binding with HveA", "settings": "FIG. 4B", "procedure": "Several ELISAs were performed to analyze interaction among HveA, the isolated phage peptides, gD, and LT-α. In these assays, microtiter wells were coated for 2 hours at 22° C. with 40 nanograms of HveA(200t), human factor H, trout complement C3, BSA, milk, or ovalbumin. Nonspecific binding in the wells was blocked using PBS containing 1% (w/v) BSA for 1 hour at 22° C. For competition assays, serial dilutions of gD-1 (306t), gD-1 (Δ290-299t), BSA, peptide BP-1, BP-2, or an unrelated cyclic peptide having the amino acid sequence ICVVQDWGHHRCT (SEQ ID NO:3) was added to each well. […]\nas §2, with “Color was developed by adding 2,2′-azino-di-(3-ethylbenzthiazolinesulfonate) (ABTS, Boehringer-Mannheim, Indianapolis, Ind.) and 0.5% (v/v) hydrogen peroxide.” left out"}},
  "note": "Bridge positions count the residues as written; N and C are the ends. Ends that are not written are not given here. * marks the point of attachment. Acm = CC(=O)NC*",
  "data": [
    {"molecule": "BP-1 (4, 10 Acm): linear BP-1 peptide generated by reduction and alkylation of the 26-mer peptide, SEQ ID NO:1 (SISC(Acm)SRGLVC(Acm)LLPRLTNESGNDRFDS)", "values": [
      {"measurement": "inhibitory effect upon binding of gD-1 with HveA", "setting": "[1]", "result": "no inhibitory effect"}
    ]},
    {"molecule": "BP-1: cyclic 26-residue HveA-binding peptide, SEQ ID NO:4, from the 27-mer phage library (SISCSRGLVCLLPRLTNESGNDRFDS; disulfide 4-10 (inferred))", "values": [
      {"measurement": "effect on HSV entry into CHO-HveC cells", "setting": "[2]", "result": "Neither BP-1 or BP-2 had any effect"},
      {"measurement": "inhibition of binding of phage displaying BP-2 to HveA", "setting": "[3]; FIG. 3A", "result": "vice versa"},
      {"measurement": "blocking of HSV-1 entry into CHO-HveA cells", "setting": "[4]", "result": "neither BP-1 nor any of the BP-2 analogs blocked virus entry"},
      {"measurement": "effect on HSV entry into Vero cells", "setting": "[5]", "result": "Neither BP-1 or BP-2 had any effect"},
      {"measurement": "inhibition of binding of soluble wild type gD-1(306t) with immobilized HveA (200t)", "setting": "[1]", "result": 20, "unit": "%"}
    ]},
    {"molecule": "BP-2 (3, 9 Ala): linear form of BP-2 generated by substitution of the cysteine residues with alanine, SEQ ID NO:2 (GSADGFRVAYMH; Peptide corresponds to BP-2 (3,9 Ala))", "values": [
      {"measurement": "inhibitory effect upon binding of gD-1 with HveA", "setting": "[1]", "result": "no inhibitory effect"}
    ]},
    {"molecule": "BP-2: cyclic 12-residue HveA-binding peptide, SEQ ID NO:5, from the 12-mer phage library (GSCDGFRVCYMH; disulfide 3-9 (inferred))", "values": [
      {"measurement": "effect on HSV entry into CHO-HveC cells", "setting": "[2]", "result": "Neither BP-1 or BP-2 had any effect"},
      {"measurement": "inhibition of binding of phage displaying BP-1 to HveA", "setting": "[3]; FIG. 3B", "result": "inhibited"},
      {"measurement": "blocking of HSV-1 entry into CHO-HveA cells", "setting": "[4]", "result": "blocked entry"},
      {"measurement": "effect on HSV entry into Vero cells", "setting": "[5]", "result": "Neither BP-1 or BP-2 had any effect"},
      {"measurement": "inhibition of binding of gD-1 (Δ290-299t) with HveA", "setting": "[6]", "result": 40, "unit": "%"},
      {"measurement": "inhibition of binding of soluble wild type gD-1(306t) with immobilized HveA (200t)", "setting": "[1]", "result": 80, "unit": "%"}
    ]},
    {"molecule": "ICVVQDWGHHRCT [cyclic control peptide, reference compound]", "values": [
      {"measurement": "inhibitory effect upon binding of gD-1 with HveA", "setting": "[1]", "result": "no inhibitory effect"}
    ]},
    {"molecule": "scrambled sequence BP-2: scrambled primary sequence of the parental cyclic BP-2, maintaining the position of the two cysteines, SEQ ID NO:6 (YMCRFVDGCHGS; disulfide 3-9 (inferred))", "values": [
      {"measurement": "inhibitory effect upon binding of gD-1 with HveA", "setting": "[1]", "result": "no inhibitory effect"}
    ]},
    {"molecule": "B1", "values": [
      {"measurement": "inhibition of HveA-binding phage clones binding with HveA (200t)", "setting": "[3]; fluid-phase soluble competitor, FIG. 1A", "result": "significantly inhibited"},
      {"measurement": "blocking of HSV-1 entry into CHO-HveA cells", "setting": "[4]", "result": "failed to do so"}
    ]}
  ]
}
